According to article PMC2783235:

Columns and labels:
[1] = molecular target: T279C (single-Cys mutant of FT-HT-Xa) (S. cerevisiae) (UniProt D6VTK4); test: cross-linking
[2] = molecular target: T279C (single-Cys mutant of FT-HT-Xa) (S. cerevisiae) (UniProt D6VTK4); test: cross-linking; remark: listed apart in the source
[3] = molecular target: T279C (single-Cys mutant of FT-HT-Xa) (S. cerevisiae) (UniProt D6VTK4); test: cross-linking; remark: listed apart in the source
[4] = molecular target: T279C (single-Cys mutant of FT-HT-Xa) (S. cerevisiae) (UniProt D6VTK4); test: SDS-PAGE and western blot of membranes
[5] = molecular target: L66C (single-Cys mutant of FT-HT-Xa) (S. cerevisiae) (UniProt D6VTK4); test: cross-linking
[6] = molecular target: L66C (single-Cys mutant of FT-HT-Xa) (S. cerevisiae) (UniProt D6VTK4); test: cross-linking; remark: listed apart in the source
[7] = molecular target: L66C (single-Cys mutant of FT-HT-Xa) (S. cerevisiae) (UniProt D6VTK4); test: cross-linking; remark: listed apart in the source
[8] = molecular target: L66C (single-Cys mutant of FT-HT-Xa) (S. cerevisiae) (UniProt D6VTK4); test: SDS-PAGE and western blot of membranes
[9] = molecular target: V68C (single-Cys mutant of FT-HT-Xa) (S. cerevisiae) (UniProt D6VTK4); test: cross-linking
[10] = molecular target: V68C (single-Cys mutant of FT-HT-Xa) (S. cerevisiae) (UniProt D6VTK4); test: cross-linking; remark: listed apart in the source
[11] = molecular target: V68C (single-Cys mutant of FT-HT-Xa) (S. cerevisiae) (UniProt D6VTK4); test: cross-linking; remark: listed apart in the source
[12] = molecular target: V68C (single-Cys mutant of FT-HT-Xa) (S. cerevisiae) (UniProt D6VTK4); test: SDS-PAGE and western blot of membranes
[13] = molecular target: T278C (single-Cys mutant of FT-HT-Xa) (S. cerevisiae) (UniProt D6VTK4); test: cross-linking
[14] = molecular target: T278C (single-Cys mutant of FT-HT-Xa) (S. cerevisiae) (UniProt D6VTK4); test: cross-linking; remark: listed apart in the source
[15] = molecular target: T278C (single-Cys mutant of FT-HT-Xa) (S. cerevisiae) (UniProt D6VTK4); test: cross-linking; remark: listed apart in the source
[16] = molecular target: T278C (single-Cys mutant of FT-HT-Xa) (S. cerevisiae) (UniProt D6VTK4); test: SDS-PAGE and western blot of membranes
[17] = molecular target: I67C (single-Cys mutant of FT-HT-Xa) (S. cerevisiae) (UniProt D6VTK4); test: cross-linking
[18] = molecular target: I67C (single-Cys mutant of FT-HT-Xa) (S. cerevisiae) (UniProt D6VTK4); test: cross-linking; remark: listed apart in the source
[19] = molecular target: I67C (single-Cys mutant of FT-HT-Xa) (S. cerevisiae) (UniProt D6VTK4); test: cross-linking; remark: listed apart in the source
[20] = molecular target: I67C (single-Cys mutant of FT-HT-Xa) (S. cerevisiae) (UniProt D6VTK4); test: SDS-PAGE and western blot of membranes
[21] = molecular target: M69C (single-Cys mutant of FT-HT-Xa) (S. cerevisiae) (UniProt D6VTK4); test: cross-linking
[22] = molecular target: M69C (single-Cys mutant of FT-HT-Xa) (S. cerevisiae) (UniProt D6VTK4); test: cross-linking; remark: listed apart in the source
[23] = molecular target: M69C (single-Cys mutant of FT-HT-Xa) (S. cerevisiae) (UniProt D6VTK4); test: cross-linking; remark: listed apart in the source
[24] = molecular target: M69C (single-Cys mutant of FT-HT-Xa) (S. cerevisiae) (UniProt D6VTK4); test: SDS-PAGE and western blot of membranes
[25] = molecular target: L66C (single-Cys mutant of FT-HT-Xa) (S. cerevisiae) (UniProt D6VTK4); test: radioligand binding
[26] = molecular target: L283C (single-Cys mutant of FT-HT-Xa) (S. cerevisiae) (UniProt D6VTK4); test: radioligand binding
[27] = molecular target: I67C (single-Cys mutant of FT-HT-Xa) (S. cerevisiae) (UniProt D6VTK4); test: radioligand binding
[28] = molecular target: L284C (single-Cys mutant of FT-HT-Xa) (S. cerevisiae) (UniProt D6VTK4); test: radioligand binding
[29] = molecular target: L64C (single-Cys mutant of FT-HT-Xa) (S. cerevisiae) (UniProt D6VTK4); test: radioligand binding
[30] = molecular target: S292C (single-Cys mutant of FT-HT-Xa) (S. cerevisiae) (UniProt D6VTK4); test: radioligand binding
[31] = molecular target: L289C (single-Cys mutant of FT-HT-Xa) (S. cerevisiae) (UniProt D6VTK4); test: radioligand binding
[32] = molecular target: A296C (single-Cys mutant of FT-HT-Xa) (S. cerevisiae) (UniProt D6VTK4); test: radioligand binding
[33] = molecular target: S288C (single-Cys mutant of FT-HT-Xa) (S. cerevisiae) (UniProt D6VTK4); test: radioligand binding
[34] = molecular target: L291C (single-Cys mutant of FT-HT-Xa) (S. cerevisiae) (UniProt D6VTK4); test: radioligand binding
[35] = molecular target: S293C (single-Cys mutant of FT-HT-Xa) (S. cerevisiae) (UniProt D6VTK4); test: radioligand binding
[36] = molecular target: T65C (single-Cys mutant of FT-HT-Xa) (S. cerevisiae) (UniProt D6VTK4); test: radioligand binding
[37] = molecular target: L287C (single-Cys mutant of FT-HT-Xa) (S. cerevisiae) (UniProt D6VTK4); test: radioligand binding
[38] = molecular target: V286C (single-Cys mutant of FT-HT-Xa) (S. cerevisiae) (UniProt D6VTK4); test: radioligand binding
[39] = molecular target: V68C (single-Cys mutant of FT-HT-Xa) (S. cerevisiae) (UniProt D6VTK4); test: radioligand binding
[40] = molecular target: W295C (single-Cys mutant of FT-HT-Xa) (S. cerevisiae) (UniProt D6VTK4); test: radioligand binding

T279C (single-Cys mutant of FT-HT-Xa) (from UniProt D6VTK4 1-431) (receptor)
percent dimer [1]: 15.8% | percent dimer [2]: 10.1% | percent dimer [3]: 10.9% | percent dimer [4]: 17.3%

L66C (single-Cys mutant of FT-HT-Xa) (from UniProt D6VTK4 1-431) (receptor)
percent dimer [5]: 13.2% | percent dimer [6]: 11.9% | percent dimer [7]: 11.9% | percent dimer [8]: 12.3%

V68C (single-Cys mutant of FT-HT-Xa) (from UniProt D6VTK4 1-431) (receptor)
percent dimer [9]: 98.3% | percent dimer [10]: 99.2% | percent dimer [11]: 98.8% | percent dimer [12]: 28.5%

T278C (single-Cys mutant of FT-HT-Xa) (from UniProt D6VTK4 1-431) (receptor)
percent dimer [13]: 12.5% | percent dimer [14]: 65.8% | percent dimer [15]: 12.4% | percent dimer [16]: 15.1%

I67C (single-Cys mutant of FT-HT-Xa) (from UniProt D6VTK4 1-431) (receptor)
percent dimer [17]: 17.4% | percent dimer [18]: 17% | percent dimer [19]: 18% | percent dimer [20]: 19.3%

M69C (single-Cys mutant of FT-HT-Xa) (from UniProt D6VTK4 1-431) (receptor)
percent dimer [21]: 17% | percent dimer [22]: 14.2% | percent dimer [23]: 28.9% | percent dimer [24]: 17.7%

Tritiated α-factor ([3H]α-factor) (peptide)
Kd relative to FT-HT-Xa (relative to FT-HT-Xa) [25]: 0.5 | Kd relative to FT-HT-Xa (relative to FT-HT-Xa) [26]: 4.7 | Kd relative to FT-HT-Xa (relative to FT-HT-Xa) [27]: 2.2 | Kd relative to FT-HT-Xa (relative to FT-HT-Xa) [28]: 1.1 | Kd relative to FT-HT-Xa (relative to FT-HT-Xa) [29]: 2.5 | Kd relative to FT-HT-Xa (relative to FT-HT-Xa) [30]: 0.2 | Kd relative to FT-HT-Xa (relative to FT-HT-Xa) [31]: 2.1 | Kd relative to FT-HT-Xa (relative to FT-HT-Xa) [32]: 0.4 | Kd relative to FT-HT-Xa (relative to FT-HT-Xa) [33]: 4.1 | Kd relative to FT-HT-Xa (relative to FT-HT-Xa) [34]: 1.7 | Kd relative to FT-HT-Xa (relative to FT-HT-Xa) [35]: 2.5 | Kd relative to FT-HT-Xa (relative to FT-HT-Xa) [36]: 1.5 | Kd relative to FT-HT-Xa (relative to FT-HT-Xa) [37]: 1.1 | Kd relative to FT-HT-Xa (relative to FT-HT-Xa) [38]: 1.9 | Kd relative to FT-HT-Xa (relative to FT-HT-Xa) [39]: 1.1 | Kd relative to FT-HT-Xa (relative to FT-HT-Xa) [40]: 1.3
